Data as given in patent publication US20060024296A1 (AbbVie / Abbott, published 2006).

T1: hu75/mu25 chimeric CS1-Fc (human/mouse chimera; human)
T1 construct: entry starts with the signal peptide; not shown: human gamma 1 Fc tag of the NIF Fc vector
T1 chain: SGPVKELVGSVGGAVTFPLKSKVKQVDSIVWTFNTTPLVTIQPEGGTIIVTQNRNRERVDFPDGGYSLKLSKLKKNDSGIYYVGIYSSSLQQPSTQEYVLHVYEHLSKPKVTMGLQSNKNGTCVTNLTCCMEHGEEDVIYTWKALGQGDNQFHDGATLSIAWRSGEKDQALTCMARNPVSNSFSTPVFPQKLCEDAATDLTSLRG

B1: Luc34 (antibody, IgG1, V domains shown)
VH: QVQLQQSGAELARPGASVKLSCKASGYTFTSYWMQWVKQRPGQGLEWIGAIYPGDGDTRYTQKFKGKATLTADKSSSTAYMQLSSLASEDSAVYYCARGKVYYGSNPFAYWGQGTLVTVSA
VL: DIQMTQSSSYLSVSLGGRVTITCKASDHINNWLAWYQQKPGNAPRLLISGATSLETGVPSRFSGSGSGKDYTLSITSLQTEDVATYYCQQYWSTPWTFGGGTKLEIK
notes: subclone Luc34.1 used in BIAcore; also called Luc34-1; Luc34-3
B2: Luc69 (antibody, V domains shown)
VH: QVQLQQSGPELVKPGASVKISCKASGYAFSNSWMNWVKQRPGQGLEWIGRIYPGDGDTKSNGKFKGKATLTADKSSRAAYMQLSSLTSVDSAVYFCARSTMIMTGAMDYWGQGTSVTVSS
VL: DIVMTQSHKFMSTSVGDRVIITCKASQDVSTAVAWYQQKPGQSPKLLIYSASFRYTGVPDRFTGSGSGTDFTFTVSSVQAEDLAVYYCQQHYSTPPYTFGGGTKLEIK
notes: mouse monoclonal
B3: Luc90 (antibody, IgG2b, V domains shown)
VH: QVQLQQPGAELVRPGASVKLSCKASGYSFTTYWMNWVKQRPGQGLEWIGMIHPSDSETRLNQKFKDKATLTVDKSSSTAYMQLSSPTSEDSAVYYCARSTMIATRAMDYWGQGTSVTVSS
VL: DIVMTQSQKSMSTSVGDRVSITCKASQDVITGVAWYQQKPGQSPKLLIYSASYRYTGVPDRFTGSGSGTDFTFTISNVQAEDLAVYYCQQHYSTPLTFGAGTKLELK
notes: mouse monoclonal, IgG2b; subclone Luc90.H1 used in BIAcore; also called Luc90-H1, D9; Luc90.H1
B4: Luc63 (antibody, IgG2a, V domains shown)
VH: EVKLLESGGGLVQPGGSLKLSCAASGFDFSRYWMSWVRQAPGKGLEWIGEINPDSSTINYTPSLKDKFIISRDNAKNTLYLQMSKVRSEDTALYYCARPDGNYWYFDVWGAGTTVTVSS
VL: DIVMTQSHKFMSTSVGDRVSITCKASQDVGIAVAWYQQKPGQSPKLLIYWASTRHTGVPDRFTGSGSGTDFTLTISNVQSEDLADYFCQQYSSYPYTFGGGTKLEIK
notes: mouse monoclonal, IgG2a; also called Lu 63; Luc63-1
B5: HuLuc63 (antibody, human IgG1, V domains shown)
VH: EVQLVESGGGLVQPGGSLRLSCAASGFDFSRYWMSWVRQAPGKGLEWIGEINPDSSTINYAPSLKDKFIISRDNAKNSLYLQMNSLRAEDTAVYYCARPDGNYWYFDVWGQGTLVTVSS
VL: DIQMTQSPSSLSASVGDRVTITCKASQDVGIAVAWYQQKPGKVPKLLIYWASTRHTGVPDRFSGSGSGTDFTLTISSLQPEDVATYYCQQYSSYPYTFGQGTKVEIK
notes: human IgG1/κ, transiently expressed in 293-H cells; also called humanized Luc63; HuLuc63 IgG1/κ antibody

Legend:
[1] = target: T2, human CS1-Fc fusion protein (human, UniProt Q9NQ25 23-226, limits assumed); experiment: SPR BIAcore 2000, antibody immobilised, CS1-Fc analyte, bivalent analyte model
T2 construct: analyte of the BIAcore experiment; not shown: Fc part

[2] = target: T3, human CS1 (native, on K562 and Daudi cells) (human, UniProt Q9NQ25 23-335); experiment: FACS, K562 cells
T3 construct: K562 and Daudi cells 'are known to express native CS1'; also called SLAMF7; CRACC

[3] = target: T4, CS1 ECD-myc-GPI fusion protein on NSO cells (human, UniProt Q9NQ25 23-226, glycosyl phosphatidylinositol linkage for cell surface expression); experiment: FACS, NSO-CS1 cells
T4 construct: also called NSO-CS1

NSO-FcRn = target: T5, NSO-FcRn; experiment: FACS, NSO-FcRn cells
T5 construct: negative control transfectant; also called FcRn on NSO cells

[4] = target: T3, human CS1 (native, on K562 and Daudi …); experiment: FACS, Daudi cells
[5] = target: T1, hu75/mu25 chimeric CS1-Fc; experiment: sandwich ELISA, Fc-captured construct
[6] = target: T6, mu25/hu75 chimeric CS1-Fc (human/mouse chimera; human); experiment: sandwich ELISA, Fc-captured construct
T6 construct: entry starts with the signal peptide; not shown: human gamma 1 Fc tag of the NIF Fc vector

[7] = target: T7, huCS1 (human CS1 extracellular domain, amino acids 1-227, fused to human gamma 1 Fc) (human, UniProt P01857-1 99-330 = IgG part); experiment: sandwich ELISA, Fc-captured construct
T7 construct: domain: human Fc tag; secreted protein in 293/T supernatant; also called human CS1-Fc

[8] = target: T2, human CS1-Fc fusion protein; experiment: SPR BIAcore 2000
[9] = target: T4, CS1 ECD-myc-GPI fusion protein on NSO …; experiment: cell-based or functional assay
[10] = target: T8, CS1 ECD-Fcγ3 fusion protein (human, UniProt Q9NQ25 23-226); experiment: direct binding ELISA, coated human CS1-human Fcγ3
T8 construct: also called CS1-G3; CS1-γ3; not shown: constant region of IgG3 (human Fc-γ3)

Binder | Kd [1] | koff [1] | kon [1] | FACS (MFI) [2] | FACS (MFI) [3] | FACS (MFI) (NSO-FcRn) | FACS (MFI) [4] | binding result [5] | binding result [6] | binding result [7] | fold higher binding affinity than Luc34.1 [8] | fold higher binding affinity than Luc 63.2 [8] | cytotoxicity of the target cells (ADCC, LDH release, PBMC effectors 20:1) [9] | EC50 [10]
B1 | 173 nM | 0.00127 s⁻¹ | 7480 M⁻¹ s⁻¹ | 26.2 MFI | 127 MFI | < 5 MFI | 10.3 MFI | binds | no binding (tested: 2 ug/ml) | binds |  |  |  | 
B2 |  |  |  |  |  |  |  | binds | no binding (tested: 2 ug/ml) | binds |  |  |  | 
B3 | 6.29 nM | 0.000281 s⁻¹ | 45600 M⁻¹ s⁻¹ | 9.7 MFI | 237 MFI | < 5 MFI | 10.1 MFI | binds | no binding (tested: 2 ug/ml) | binds | 28 fold | 5.5 fold | ~50% | 
B4 | 34.6 nM |  |  | 15.8 MFI | 214 MFI | < 5 MFI | 12.7 MFI |  |  |  |  |  |  | 0.0661 µg/mL
B5 |  |  |  |  |  |  |  |  |  |  |  |  |  | 0.0701 µg/mL
